The values that follow come from patent publication US20100143262A1, “Method for Identifying Allergenic Proteins And Peptides” (priority 2008, published 2010).

Experiment [1] has as its system Humanized Rat Basophil Leukaemia (RBL) cells (clone RBL-703/21). Briefly: human RBL assay: β-hexosaminidase release of humanized RBL cells loaded with patients' serum IgE. The experiment is classed as cell-based. The note with it: percentage of 78 patients' sera triggering β-hexosaminidase release; milk components 0.3 μg/ml. From the text:
A scientifically approved model to test biological reactivity of molecules is induction of histamine release from human basophil granulocytes (Purohit 2005). For this purpose a rat basophil leukaemia cell line expressing the α-chain of the human FcεRI receptor (Hoffmann et al., Int Arch Allergy Immunol, Vol 126(4), p. 277-285) was used. Different milk components (n=33) including whole milk extracts from different species, milk fractions, purified natural and recombinant cow's milk proteins, and recombinant protein fragments were tested. The percentages of 78 patients whose serum IgE antibodies trigger β-hexosaminidase release of the humanized RBL cells in response to the individual milk components were determined (FIG. 3).
(§1) Sera from 78 patients who were selected according to a positive case history, positive skin-prick reactions and determination of specific IgE to cow's milk extract using the CAP-FEIA System (Phadia, Uppsala, Sweden) were used. Sera were obtained from five adults and 73 children (30 female and 43 male) from Austria, Germany, Italy, Spain and France.
Humanized Rat Basophil Leukaemia (RBL) cells (clone RBL-703/21) were incubated in microtiter plates overnight at 37° C. (7% CO2, 95% humidity) with 50 μl human sera, diluted 1:10. Afterwards cells were washed and exposed to milk components, diluted to 0.3 μg/ml protein in Tyrodes buffer containing 50% D2O and 0.1% BSA/HAS for 1 hour at 37° C. (7% CO2, 95% humidity). Spontaneous release of the cells was also evaluated. Finally, the cell supernatants were incubated with 50 μl assay solution (0.1 M citric acid or sodium citrate, pH 4.5, 160 μM 4-methyl umbelliferyl-N-acetyl-β-D-glucosaminide) in new microtiter plates at 37° C. (7% CO2, 95% humidity) for 1 h. The reactions were stopped by addition of 100 μl glycine buffer per well and the fluorescence measured at λex: 360 and λem: 465 using a fluorescence microplate reader. The specific hexosaminidase release of each sample was calculated using the formula: [(FlS−FlSp):(FlZ−FlSp)]×100 (where […] is the fluorescence of the sample; FlSp is the fluorescence of the spontaneous release and FlZ is the fluorescence of the total release).

Experiment [2] deals with serum IgE of cow's milk allergic patients. Description: IgE binding capacity (IgE reactivity) of milk components with patients' sera. Also on record: species or system human. Conditions: sera of cow's milk allergic patients (n=78).
Source text: as §1

B1: lactoferrin (protein, UniProt P24627 20-708, looked up)
Lactotransferrin: APRKNVRWCTISQPEWFKCRRWQWRMKKLGAPSITCVRRAFALECIRAIAEKKADAVTLDGGMVFEAGRDPYKLRPVAAEIYGTKESPQTHYYAVAVVKKGSNFQLDQLQGRKSCHTGLGRSAGWIIPMGILRPYLSWTESLEPLQGAVAKFFSASCVPCIDRQAYPNLCQLCKGEGENQCACSSREPYFGYSGAFKCLQDGAGDVAFVKETTVFENLPEKADRDQYELLCLNNSRAPVDAFKECHLAQVPSHAVVARSVDGKEDLIWKLLSKAQEKFGKNKSRSFQLFGSPPGQRDLLFKDSALGFLRIPSKVDSALYLGSRYLTTLKNLRETAEEVKARYTRVVWCAVGPEEQKKCQQWSQQSGQNVTCATASTTDDCIVLVLKGEADALNLDGGYIYTAGKCGLVPVLAENRKSSKHSSLDCVLRPTEGYLAVAVVKKANEGLTWNSLKDKKSCHTAVDRTAGWNIPMGLIVNQTGSCAFDEFFSQSCAPGADPKSRLCALCAGDDQGLDKCVPNSKEKYYGYTGAFRCLAEDVGDVAFVKNDTVWENTNGESTADWAKNLNREDFRLLCLDGTRKPVTEAQSCHLAVAPNHAVVSRSDRAAHVKQVLLHQQALFGKNGKNCPDKFCLFKSETKNLLFNDNTECLAKLGGRPTYEEYLGTEYVTAIANLKKCSTSPLLEACAFLTR
notes: natural purified protein
On to B1, for which the “biological activity (% of patients)” value in experiment [1] is 2.6 % of patients. For the same molecule, the “IgE binding (% of patients)” value in experiment [2] was 5.1 % of patients.

B2: BSA_F2: recombinant fragment 2 of BSA, 189 aa, sequence in Table 1A (protein)
chain: MARQRLRCASIQKFGERALKAWSVARLSQKEPKAEFVEVTKLVTDLTKVHKECCHGDLLECADDRADLAKYICDNQDTISSKLKECCDKPLLEKSHCIAEVEKDAIPENLPPLTADFAEDKDVCKNYQEAKDAFLGSFLYEYSRRHPEYAVSVLLRLAKEYEATLEECCAKDDPHACYSTVFDKLKHLVDEHHHHHH
Regarding B2, the “biological activity (% of patients)” value in experiment [1] is 4.3 % of patients. For the same molecule, the “IgE binding (% of patients)” value in experiment [2] is 8.5 % of patients.

B3: BSA_F3: recombinant fragment 3 of BSA, 200 aa, sequence in Table 1A (protein)
chain: MPQNLIKQNCDQFEKLGEYGFQNALIVRYTRKVPQVSTPTLVEVSRSLGKVGTRCCTKPESERMPCTEDYLSLWNRLCVLHEKTPVSEKVTKCCTESLVNRRPCFSALTPDETYVPKAFDEKLFTFHADICTLPDTEKQIKKQTALVELLKHKPKATEEQLKTVMENFVAFVDKCCAADDKEACFAVEGPKLVVSTQTALAHHHHHH
As for B3, in experiment [1], the “biological activity (% of patients)” value is on record as 8.5 % of patients. Besides, in experiment [2], the “IgE binding (% of patients)” value is listed as 8.5 % of patients.

B4: human alpha-lactalbumin (protein)
chain: KQFTKCELSQLLKDIDGYGGIALPELICTMFHTSGYDTQAIVENNESTEYGLFQISNKLWCKSSQVPQSRNICDISCDKFLDDDITDDIMCAKKILDIKGIDYWLAHKALCTEKLEQWLCEKL
notes: natural purified protein
Regarding B4, the “biological activity (% of patients)” value in experiment [1] is recorded as 6.4 % of patients. Moreover, the “IgE binding (% of patients)” value in experiment [2] is given as 30.8 % of patients.

B5: recombinant aS2-casein (protein)
chain: KNTMEHVSSSEESIISQETYKQEKNMAINPSKENLCSTFCKEVVRNANEEEYSIGSSSEESAEVATEEVKITVDDKHYQKALNEINQFYQKFPQYLQYLYQGPIVLNPWDQVKRNAVPITPTLNREQLSTSEENSKKTVDMESTEVFTKKTKLTEEEKNRLNFLKKISQRYQKFALPQYLKTVYQHQKAMKPWIQPKTKVIPYVRYL
notes: expressed in E. coli
For the molecule B5, the “biological activity (% of patients)” value in experiment [1] is 5.1 % of patients. Moreover, in experiment [2], the “IgE binding (% of patients)” value is given as 9.0 % of patients.

B6: BSA_F1: recombinant fragment 1 of BSA, 190 aa, sequence in Table 1A (protein)
chain: MRGVFRRDTHKSEIAHRFKDLGEEHFKGLVLIAFSQYLQQCPFDEHVKLVNELTEFAKTCVADESHAGCEKSLHTLFGDELCKVASLRETYGDMADCCEKQEPERNECFLSHKDDSPDLPKLKPDPNTLCDEFKADEKKFWGKYLYEIARRHPYFYAPELLYYANKYNGVFQECCQAEDKGACLLPKIETMREKVLTSSHHHHHH
With B6, the “biological activity (% of patients)” value in experiment [1] is listed as 4.3 % of patients. Besides, the “IgE binding (% of patients)” value in experiment [2] is 2.1 % of patients.

B7: recombinant alphaS1-casein (protein)
chain: RPKHPIKHQGLPQEVLNENLLRFFVAPFPEVFGKEKVNELSKDIGSESTEDQAMEDIKQMEAESISSSEEIVPNSVEQKHIQKEDVPSERYLGYLEQLLRLKKYKVPQLEIVPNSAEERLHSMKEGIHAQQKEPMIGVNQELAYFYPELFRQFYQLDAYPSGAWYYVPLGTQYTDAPSFSDIPNPIGSENSEKTTMPLW
notes: expressed in E. coli
As to B7, the “biological activity (% of patients)” value in experiment [1] is reported as 19.2 % of patients. Moreover, the “IgE binding (% of patients)” value in experiment [2] is listed as 48.7 % of patients.

B8: beta-lactoglobulin variant A (protein)
chain: LIVTQTMKGLDIQKVAGTWYSLAMAASDISLLDAQSAPLRVYVEELKPTPEGDLEILLQKWENDECAQKKIIAEKTKIPAVFKIDALNENKVLVLDTDYKKYLLFCMENSAEPEQSLVCQCLVRTPEVDDEALEKFDKALKALPMHIRLSFNPTQLEEQCHI
notes: natural purified protein
For B8, the “biological activity (% of patients)” value in experiment [1] is 28.2 % of patients. In experiment [2], the “IgE binding (% of patients)” value is 50.0 % of patients.

B9: beta-casein (protein, UniProt P02666 16-224, looked up)
Beta-casein: RELEELNVPGEIVESLSSSEESITRINKKIEKFQSEEQQQTEDELQDKIHPFAQTQSLVYPFPGPIPNSLPQNIPPLTQTPVVVPPFLQPEVMGVSKVKEAMAPKHKEMPFPKYPVEPFTESQSLTLTDVENLHLPLPLLQSWMHQPHQPLPPTVMFPPQSVLSLSQSKVLPVPQKAVPYPQRDMPIQAFLLYQEPVLGPVRGPFPIIV
notes: natural purified protein
As for B9, in experiment [1], the “biological activity (% of patients)” value is 34.6 % of patients. In experiment [2], the “IgE binding (% of patients)” value was 44.9 % of patients.

B10: recombinant beta-casein (protein)
chain: RELEELNVPGEIVESLSSSEESITRINKKIEKFQSEEQQQTEDELQDKIHPFAQTQSLVYPFPGPIPNSLPQNIPPLTQTPVVVPPFLQPEVMGVSKVKEAMAPKHKEMPFPKYPVEPFTESQSLTLTDVENLHLPLPLLQSWMHQPHQPLPPTVMFPPQSVLSLSQSKVLPVPQKAVPYPQRDMPIQAFLLYQEPVLGPVRGPFPIIV
notes: expressed in E. coli
In the case of B10, in experiment [1], the “biological activity (% of patients)” value is 10.3 % of patients. For the same molecule, the “IgE binding (% of patients)” value in experiment [2] is given as 55.1 % of patients.
